Data from the nanobody polyreactivity screen of Harvey et al. (2022).

Assay: yeast display, Sf9 membrane polyspecificity reagent, FACS + sequencing; frameworks hold sequencing errors
How it was run: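 Synthetic nanobody libraries on Saccharomyces cerevisiae BJ5465 were galactose-induced for 36–48 hours, stained 1 hour at 4 °C with 10% biotinylated, detergent-solubilized Sf9 membrane reagent and enriched on streptavidin microbeads. FACS then separated cells into low and high (top ~1%) gates by anti-HA (expression) and streptavidin (reagent binding) fluorescence. Genes were colony-PCR amplified, MiSeq 2 × 250 sequenced and CDR-length filtered. A clone's polyreactivity label is that of its gate of origin.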

Sequence | polyreactivity (PSR sort gate)
QVQLVESGGGLVQAGGSLRLSCAASGSIFSYYAMGWYRQAPGKERELVADITANDGSTYYADSVKGRFTISRDNAKNTVYLQMHSLKPEVTAVYYCAAASDLYGSIWIETGVTSDYWGQGTQVTVSS | high polyreactivity
QVQLVESGGGLVQAGGSLRLSCAASGSIFSYYAMGWYRQAPGKERELVADITVRGGSTYYADSVKGRFTISRDNAKNTVYLQMNSLIPEDTAVYYCAADWLDESFSYGPYYYWGQGTQVTVSS | low polyreactivity
QVQLVESGGGLVQAGGSLRLSCAASGSIFSYYTMGWYRQAPGKERELVAAISFRGTSTYYADSVKGRFTISRDNAKNTVYLQMNSLKPEDTAVYYCAKRALYYPTYPKYDTYNRYYWGQGTQVTVSS | high polyreactivity
QVQLVESGGGLVQAGGSLRLSCAASGSIFTAYALGWYRQAPGKERELVAAIDDSGDSTYYADSVKGRFTISRDNAKNTVYLQMHSLKPEDTAVNYCKAEYRVNKEYDYWGQGTQVTVSS | low polyreactivity
QVQLVESGGGLVQAGGSLRLSCAASGSIFTAYAMGWYRPAPGKERELVAAITSGGSTNYADSVKGRFTISRDNAKNTVYLQMNSLKPEDTAVYYCNADDYWLDSWSSVLWYDYWGQGTQVTVSS | low polyreactivity
QVQLVESGGGLVQAGGSLRLSCAASGSIFTEYAMGWYRQAPGKERELVAAISWSGATTYYADSVKGRFTISRDNAKNTVYLQMNSLKPEDTAVYYCAARWANRSYEYWGQGTQVSVSS | low polyreactivity
QVQLVESGGGLVQAGGSLRLSCAASGSIFTFYAMGWYRQAPGKERELVARITRGVSTNYADSVKGRFTISRDNAKITVYLQLNSLKPEDTAVYYCAAESGNRYEYWGQGTQVTVSS | low polyreactivity
QVQLVESGGGLVQAGGSLRLSCAASGSIFTGNAMGSYRQAPGKERELVAAISSSGARTYYADSVKGRFTISRDNAKNTVNLQMNSLKPEDTAVYYCNADSYTLYGLYDYWGQGTKVTVSS | low polyreactivity
QVQLVESGGGLVQAGGSLRLSCAASGSIFTHNAMGWYRQAPGKERVLVAAISSGGSTNYADSVKGRFTISRDNAKNTVYLQMNSLKPEDTAVYYCAKSIDGWYWRRRRYDYWGQGTQVTVSS | low polyreactivity
QVQLVESGGGLVQAGGSLRLSCAASGSIFTHYAMGWYRQAPGTERELVAGITSSGGSTYADSVKGRFTISRDNAKNTVYLQMNSLKPEDTAVYYCAAEQLRSRLIEYDYWRQGTQVTVSS | low polyreactivity
QVQLVESGGGLVQAGGSLRLSCAASGSIFTINAMGWYRQAPGKERELVAAISFSGGRTYYADSVKGRFTISRDNAKITVYLQMNSLKPEDTAVYYCAAPFYYYGVRFDYWGQGTQVTVSS | high polyreactivity
QVQLVESGGGLVQAGGSLRLSCAASGSIFTIYAMGWYRQAPGKERELVAAIRESSGSTYYADSVKGRFTISRDYAKNTVYFQINSLKPEDTAVYYCAADINYSSYDYWGQGTQVTVSS | high polyreactivity
QVQLVESGGGLVQAGGSLRLSCAASGSIFTIYAMGWYRQAPGKERELVATITGIADSTYYADSVKGRFTISRDNAKNTVYLQMNSLKPEDTAVYYCAADKYVAEYDYWGQGTQVTVSS | low polyreactivity
QVQLVESGGGLVQAGGSLRLSCAASGSIFTKYAMGWYRQAPGKERELVAAINARGGSTYYADSVKGRFTISRDNAKNTVYLQMNSLKPEDTAVYYCAARYGVGRADYYWGHGTQVTVSS | high polyreactivity
QVQLVESGGGLVQAGGSLRLSCAASGSIFTKYAMGWYRQAPGKERELVAAISASGGSTYYADSVKGRFTISRDNAKNTVYLQMNSLKPEDTAVYYCAARYWVREDYWGQGTQVTVSS | high polyreactivity
QVQLVESGGGLVQAGGSLRLSCAASGSIFTKYAMGWYRQAPGKERELVAAISSSGGSTYYADSVKGRFTISRDNAKNTVYLQMNSLKPEDTAVYYCAAEAVYYRSWRYYYWGQGTQVTVSS | high polyreactivity

Sequence | polyreactivity (PSR sort gate)
QVQLVESGGGLVQAGGSLRLSCAASGSIFTLNTMGWYIQAPGKERELVAVISRSGDRTYYADSVKGRFTISRDNAKNTVYLQMNSLKPEDTAVYYCAADTTKRVRGYDYWGQGTQVTVSS | high polyreactivity
QVQLVESGGGLVQAGGSLRLSCAASGSIFTLYAMGWYRQAPGKEREFVAGISFSTGRTYYADSVKGRFTISRDNAKNTVYLQMNSLKPEDTAVYYCAAYVSHYWYGVYRDGYWGQGTQVTVSS | low polyreactivity
QVQLVESGGGLVQAGGSLRLSCAASGSIFTLYAMGWYRQAPGKERELVAAINRSGGSTYYADSVKGRFTISRDNAKNTVYLQMNSVKPEATAVYYCNARQYTGRRYDYWGQGTQVTVSS | high polyreactivity
QVQLVESGGGLVQAGGSLRLSCAASGSIFTLYAMGWYRQAPGKERELVAAITRSGGSTYYADSVKGRFTISRDNAKNTVYLQMNSLKPEDTAVYYCNKATAYGLDYWGQATQVTVSS | high polyreactivity
QVQLVESGGGLVQAGGSLRLSCAASGSIFTLYAMGWYRQAPGKERELVATINWSGGSTSYADSVKGRFTISRDNAKNTVYLQMNSLKPEDTAVYYCAADYYFWHGTGYDYWGQGTQVTVSS | low polyreactivity
QVQLVESGGGLVQAGGSLRLSCAASGSIFTPNAMGGYRQAPGKERELVAAISSSSDRTYYADSVKGRFTISRDNAKNTVYLQMNRLKPEDTAVYYCAAYAQKRYYWGQGTQVTVSS | high polyreactivity
QVQLVESGGGLVQAGGSLRLSCAASGSIFTPNAMGWYRQAPGKERELVAAISWSGARTYYADSVKGRFTISRDNAKNTVYLQMNSLKPEDTAVYYSYAFGSWGQGTQVTVSS | high polyreactivity
QVQLVESGGGLVQAGGSLRLSCAASGSIFTPYAMGWYRQAPGKERELGATISWSGGRTYYADSVKGRFTISRDNAKNTVYLQMNSLKPEDSAVYYCAARGYSSEYDYWGQGTQVTVSS | high polyreactivity
QVQLVESGGGLVQAGGSLRLSCAASGSIFTPYAMGWYRQAPGKERELVAAISWRGGNTYYADSVKGRFTISRDNAKNTFYLQMNSLKPEETAVYYCAAEQYSVYETGSYDYWGQGTQVTVSS | low polyreactivity
QVQLVESGGGLVQAGGSLRLSCAASGSIFTPYAMGWYRQAPGKEREVVATITWTGGSTYYADSVKGRFTISRDNAINTVYLQMNSLKPEDTAVYYCAADTYRSGRAYYYWGQGTQVTVSS | low polyreactivity
QVQLVESGGGLVQAGGSLRLSCAASGSIFTQYAMGWYRQAPGKERELVAAITSSGGSTHYADSVKGRFTISRDNAKNTVYLQMNSLKPEDTAVYYCAVPSFVYATFPYGYWGQGTQVTVSS | low polyreactivity
QVQLVESGGGLVQAGGSLRLSCAASGSIFTQYTMGWYRQAPGKERELVAAISRSGGRTYYADSVKGRFTISRDIAKNTVYLQMNSLKPEDTAVYYCAAEYTDKYEYWGQGTQVTVSS | high polyreactivity
QVQLVESGGGLVQAGGSLRLSCAASGSIFTRNAMGWYRQAPGKEREFVAAISSSGVSTYYADSVKGRFTISRDNAKNTVYLQMNSLKPEDTAVYYCAARWGTKSGRYDYWGQGTQVTVSS | high polyreactivity
QVQLVESGGGLVQAGGSLRLSCAASGSIFTRYAMGGYRQAPGKERELVAAITAGGSSPYYADSVKGRFTISRDNAKNTVYLQMNSLKPEDTAVYYCNAVWWHPTDYDYWGQGSQVTVSS | low polyreactivity
QVQLVESGGGLVQAGGSLRLSCAASGSIFTSNAMGWYRQAPGKERELVAAISWSGTSTYYADSVKGRFTISRDNAKNTVYLQMNSLKPEDTAVYYCNADTNYWEDDYWGQGTQVTVSS | low polyreactivity
QVQLVESGGGLVQAGGSLRLSCAASGSIFTSYAMGWYRQAPGKERELVAAIDWSGGTTYYADSVKGRFTISRDNAKNPVYLQMNSLKPEDTAVYNRAADIYKYTVGSYDYWGQGTQVTVSS | low polyreactivity
